Drawing on patent US20200199225A1, this text covers lymphocyte count in the flow-through after double purification over LS columns with antibody-conjugated MACS MicroBeads (start: 80,000 lymphocytes/µl) (lymphocytes/µl) for 1 molecule.

The target in the assay is BCRs exhibiting the target structure on primary B-cells from the blood of leukemia patients. Briefly: cell-based or functional assay.

B1: AVA-mAb01 (antibody, V domains shown)
VH: QVQLQQSGPGLVQPSQSLSITCTVSGFSLTSYGIHWVRQSPGKGLEWLGVIWRGGGTDSNAAFMSRLSITKDNSKSQVFFKMNSLQADDTAIYYCARSRYDEEESMNYWGQGTSVTVSS
VL: QIVLTQSPASLSASVGETVTITCRASGNIHSYLAWYQQKQGKSPQLLVYNAKTLADGVPSRFSGSGSGTQYSLKINSLQPEDFGSYYCQHFWNTPPTFGAGTKLELK
B1 registered a lymphocyte count in the flow-through after double purification over LS columns with antibody-conjugated MACS MicroBeads (start: 80,000 lymphocytes/µl) (lymphocytes/µl) below 5000.
